Earlier results as cited in publication PMC10952613.
“And” between values parts separate entries of the source, which are not always exact repeats. Identical values can stand only once.

Target: EGFR (Homo sapiens) (UniProt P00533)

EGF (from UniProt P01133)
Kd: < 1 nM and > 10 nM
